Experimental data from patent US20100279930A1 (published 2010).
Numbering of substitutions follows the chain as printed. Where two headings read alike, the source gives them in different places.

B1: 4058913 (peptide)
chain: APLEPSYPGDNATPEQLAKYAAELRRYINKLTRPRY
B2: 4058912 (peptide)
chain: PLEPSYPGDNATPEQLAKYAAELRRYINKLTRPRY
B3: compound of SEQ ID NO:348 (Ala 0, Lys19, Lys 30, code 4056385) (peptide)
peptide: AAPLEPVYPGDNATPEQMAKYAADLRRYINKLTRPRY
B4: 4058911 (peptide)
chain: B3 peptide with A1G, V7K, Q17E, D24E

Legend:
human Y4 receptor [1] = molecular target: T1, human Y4 receptor (human, UniProt P50391 1-375); assay: 125I-PP displacement
human Y4 receptor [2] = molecular target: T1, human Y4 receptor; assay: 125I-PP displacement; remark: listed apart in the source

T1 sequence (P50391 whole entry): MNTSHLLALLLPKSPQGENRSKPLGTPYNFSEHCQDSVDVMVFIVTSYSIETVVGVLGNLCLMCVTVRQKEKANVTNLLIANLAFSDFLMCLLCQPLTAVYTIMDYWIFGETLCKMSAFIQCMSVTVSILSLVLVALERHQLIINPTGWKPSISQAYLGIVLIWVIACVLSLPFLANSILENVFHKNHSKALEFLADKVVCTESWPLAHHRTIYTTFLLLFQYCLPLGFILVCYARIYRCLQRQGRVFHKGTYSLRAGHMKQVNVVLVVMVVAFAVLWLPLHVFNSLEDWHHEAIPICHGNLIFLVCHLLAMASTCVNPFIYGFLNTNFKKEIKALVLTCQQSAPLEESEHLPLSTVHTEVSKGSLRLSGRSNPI

| Binder | IC50 (human Y4 receptor [1]) | IC50 (human Y4 receptor [2]) |
| --- | --- | --- |
| B1 | 0.0775 nM | – |
| B2 | 0.0495 nM | – |
| B3 | – | 0.051 nM |
| B4 | 0.077 nM | – |
